Results from patent publication US20210040194A1.

Columns and labels:
Assay in all cases: cell-based or functional assay
mouse Ang2 (mouse) = mouse Ang2 (mouse) (UniProt O35608)
cyno Ang2 (cyno) = molecular target: cyno Ang2 (cyno)
[1] = molecular target: Human ANG-2 (huAng2) (human) (UniProt O15123)
Chain of Human ANG-2 (huAng2) (human) (O15123 19-496 limits assumed): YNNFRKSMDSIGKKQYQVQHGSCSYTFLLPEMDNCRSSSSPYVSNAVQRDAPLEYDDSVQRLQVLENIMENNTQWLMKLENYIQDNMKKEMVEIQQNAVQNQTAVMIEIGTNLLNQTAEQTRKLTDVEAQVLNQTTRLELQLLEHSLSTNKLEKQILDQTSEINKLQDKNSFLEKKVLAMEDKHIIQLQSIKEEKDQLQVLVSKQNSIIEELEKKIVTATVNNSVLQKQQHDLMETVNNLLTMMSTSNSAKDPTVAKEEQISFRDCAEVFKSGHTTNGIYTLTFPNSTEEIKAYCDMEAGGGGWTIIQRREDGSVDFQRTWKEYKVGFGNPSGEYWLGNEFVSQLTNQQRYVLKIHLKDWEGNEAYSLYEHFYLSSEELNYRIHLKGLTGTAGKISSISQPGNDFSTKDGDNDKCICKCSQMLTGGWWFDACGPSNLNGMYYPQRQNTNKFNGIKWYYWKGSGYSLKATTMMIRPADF

Chain of mouse Ang2 (mouse) (O35608 19-496 limits assumed): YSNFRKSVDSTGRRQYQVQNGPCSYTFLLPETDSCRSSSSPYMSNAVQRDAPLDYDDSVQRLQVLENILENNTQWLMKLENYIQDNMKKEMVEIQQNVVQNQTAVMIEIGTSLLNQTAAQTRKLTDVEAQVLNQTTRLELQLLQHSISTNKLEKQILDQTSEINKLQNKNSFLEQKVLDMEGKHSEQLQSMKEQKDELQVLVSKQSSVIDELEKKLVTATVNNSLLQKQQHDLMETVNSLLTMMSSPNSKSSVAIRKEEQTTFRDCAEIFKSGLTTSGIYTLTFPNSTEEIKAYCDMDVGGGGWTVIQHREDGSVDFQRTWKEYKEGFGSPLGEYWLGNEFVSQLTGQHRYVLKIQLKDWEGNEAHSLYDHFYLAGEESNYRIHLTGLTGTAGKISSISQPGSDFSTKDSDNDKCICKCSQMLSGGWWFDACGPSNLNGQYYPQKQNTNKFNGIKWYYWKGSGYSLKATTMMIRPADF

Mu pTie2 EC50 (nM) (mouse Ang2 (mouse)): 137 nM
Cyno pTie2 EC50 (nM) (cyno Ang2 (cyno)): 33.2 nM
Hu pTie2 EC50 (nM), Hek293-Tie2 cells [1]: 2.65 nM
Substance: MEDI3617 (antibody)
